From US20260137759A1

How the values were obtained:
TGFβ1 (R&D systems) = TGFβ1 (R&D systems) (UniProt P01137); experiment: cell-based or functional assay
[1] = target: IL2Rβ and common γ chain (on 32Dβ cells); experiment: cell-based or functional assay

Chain of UniProt P01137 (P01137 279-390 limits assumed): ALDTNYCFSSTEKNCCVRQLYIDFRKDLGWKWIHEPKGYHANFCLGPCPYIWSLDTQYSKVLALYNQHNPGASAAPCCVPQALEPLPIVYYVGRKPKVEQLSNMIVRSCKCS

IC50, inhibition of TGFβ1 activity in HEK-Blue TGFβ cells (QUANTI-Blue OD 620-655 nM) (TGFβ1 (R&D systems))	EC50, 32Dβ cell proliferation (WST1, absorbance 450 nM) [1]	Substance
0.461 nM		TGFR-Fc (R&D Systems) (from UniProt P37173 24-159) (Fc fusion)
	0.0106 nM	recombinant IL-15 (from UniProt P40933 49-162) (ligand)
